As a reminder, the Kd is the concentration at which binding is half-saturated. Low readings indicate a tighter complex, high ones a looser complex.

This assay has as its target SARS-CoV-2 Omicron BA.2 spike RBD (UniProt P0DTC2). Briefly: SPR. Background: Surface plasmon resonance follows binding to a sensor surface in real time, without labels.
Substance “raccoon dog ACE2 (rdACE2), peptidase domain (PD), wild type (from UniProt B4XEP4) R353K” registered a dissociation constant (Kd) of 136 nM.

“raccoon dog ACE2 (rdACE2), peptidase domain (PD), wild type (from UniProt B4XEP4) L24Q” registered a Kd of 283 nM.

“raccoon dog ACE2 (rdACE2), peptidase domain (PD), wild type (from UniProt B4XEP4) E38D” returned a dissociation constant Kd of 245 nM.

Source of the values: paper PMC11620640.
